In this test the target is T1, Recombinant human p65 protein (r-p65) with DDK tag (OriGene catalog number TP320780) (human, UniProt Q04206 1-551).
T1 construct: mature; also called r-p65-DDK; human r-p65; not shown: DDK tag
T1 sequence (Q04206 whole entry): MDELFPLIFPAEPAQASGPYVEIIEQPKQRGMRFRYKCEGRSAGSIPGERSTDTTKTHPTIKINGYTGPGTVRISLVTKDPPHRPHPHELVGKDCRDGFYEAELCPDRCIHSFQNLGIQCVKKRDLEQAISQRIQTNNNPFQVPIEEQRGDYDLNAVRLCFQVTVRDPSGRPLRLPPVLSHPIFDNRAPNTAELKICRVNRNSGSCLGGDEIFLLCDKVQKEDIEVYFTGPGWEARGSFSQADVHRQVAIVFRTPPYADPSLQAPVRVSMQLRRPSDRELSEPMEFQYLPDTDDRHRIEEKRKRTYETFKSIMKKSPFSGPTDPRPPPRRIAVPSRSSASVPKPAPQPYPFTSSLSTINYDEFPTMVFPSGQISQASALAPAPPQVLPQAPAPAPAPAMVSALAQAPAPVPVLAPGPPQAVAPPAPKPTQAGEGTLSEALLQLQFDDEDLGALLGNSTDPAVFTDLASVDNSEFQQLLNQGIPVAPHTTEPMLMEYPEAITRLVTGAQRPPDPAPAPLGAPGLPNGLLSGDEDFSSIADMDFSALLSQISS
As to the kind of experiment: plate-bound PGA probed with r-p65-DDK, method of Friguet, Scatchard analysis.
The Kd is the concentration at which binding is half-saturated. In the case of Ac-EPAPLAPYG-NH2 (also called Analog 3 (GA-2)) [PGA-2], the Kd was determined as 2.29 µM.
For Ac-APKPYQPRG-NH2 (also called Analog 20 (GA-1)) [PGA-1], the Kd is 4.28 µM.
The value for Ac-EPAPEQPDG-NH2 (also called Analog 8 (GA-5)) [PGA-5] was 3.4 µM; that for Ac-EPAPYQPEG-NH2 (also called Analog 14 (GA-3)) [PGA-3] was 3.27 µM.
For Ac-EPAPESPQV-NH2 (also called Analog 7 (GA-4)) [PGA-4] the value was 3.28 µM.

The values above are taken from patent publication US20190054137A1 (INDIANA UNIVERSITY RESEARCH AND TECHNOLOGY, published 2019).
